Where a chain is given by its changes, count along the chain named.

The target of data set [1] is T1, Cac1C (C-terminal WHD) (budding yeast, UniProt Q12495 520-606). Put plainly: EMSA.
The target of data set [2] is T1, Cac1C (C-terminal WHD). As to the kind of experiment: EMSA. This is another data set of the same source. (A gel shift assay detects complexes by their altered migration in electrophoresis.)
Data set [3] has as its target T1, Cac1C (C-terminal WHD). As to the kind of experiment: EMSA. The source holds these as a separate data set.
A further data set deals with Cac1C K577E (budding yeast, UniProt Q12495 520-606, K577E). Put plainly: EMSA.
In data set [4] the target is T1, Cac1C (C-terminal WHD). As to the kind of experiment: EMSA. The source holds these as a separate data set.
A further data set deals with Cac1C K553E (budding yeast, UniProt Q12495 520-606, K553E). Put plainly: EMSA.
The next data set addresses Cac1C K583E (budding yeast, UniProt Q12495 520-606, K583E). Put plainly: EMSA.
A further data set addresses T2, Mmp150C 4KE (mouse, UniProt Q9QWF0 706-827, K768E;R770E;K772E;R773E).
T2 sequence: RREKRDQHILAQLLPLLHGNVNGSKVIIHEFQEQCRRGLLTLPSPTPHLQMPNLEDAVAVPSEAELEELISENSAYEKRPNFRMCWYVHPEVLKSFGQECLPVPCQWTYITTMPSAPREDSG
Put plainly: EMSA.

Another data set addresses Hsp150C (human, UniProt Q13111 727-854). As to the kind of experiment: EMSA.
The next data set has as its target T3, Mmp150C (mouse, UniProt Q9QWF0 706-827).
T3 sequence: T2 sequence with E63K, E65R, E67K, E68R
As to the kind of experiment: EMSA.

For a further data set, the target named is GST-Cac2 (budding yeast, UniProt Q04199 1-438). Put plainly: pull-down.
Data set [5] concerns the target T1, Cac1C (C-terminal WHD). As to the kind of experiment: pull-down.
The target of data set [6] is Cac1 (in CAF-1);GST-Cac2;Cac3 (budding yeast (Saccharomyces …, UniProt Q12495;Q04199;P13712 91-606;1-438;1-422, ||)). As to the kind of experiment: pull-down.
Cac1 (in CAF-1);GST-Cac2;Cac3 (budding yeast, sequence (Q12495 91-606, chain 1 of 3): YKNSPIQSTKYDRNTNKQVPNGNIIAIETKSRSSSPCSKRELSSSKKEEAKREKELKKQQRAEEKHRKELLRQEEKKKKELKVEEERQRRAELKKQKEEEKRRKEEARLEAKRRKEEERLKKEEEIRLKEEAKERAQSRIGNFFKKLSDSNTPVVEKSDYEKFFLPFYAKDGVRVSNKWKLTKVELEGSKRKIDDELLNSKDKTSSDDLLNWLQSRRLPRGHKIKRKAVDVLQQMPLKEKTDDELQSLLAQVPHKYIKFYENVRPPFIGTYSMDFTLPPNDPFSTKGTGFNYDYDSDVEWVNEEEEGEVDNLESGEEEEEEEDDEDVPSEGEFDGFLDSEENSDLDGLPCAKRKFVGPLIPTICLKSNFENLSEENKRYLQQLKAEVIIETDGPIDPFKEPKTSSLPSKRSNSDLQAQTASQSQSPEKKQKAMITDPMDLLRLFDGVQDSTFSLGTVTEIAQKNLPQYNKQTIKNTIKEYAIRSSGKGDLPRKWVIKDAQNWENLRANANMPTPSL
Cac1 (in CAF-1);GST-Cac2;Cac3 (budding yeast, sequence (Q04199 1-438, chain 2 of 3): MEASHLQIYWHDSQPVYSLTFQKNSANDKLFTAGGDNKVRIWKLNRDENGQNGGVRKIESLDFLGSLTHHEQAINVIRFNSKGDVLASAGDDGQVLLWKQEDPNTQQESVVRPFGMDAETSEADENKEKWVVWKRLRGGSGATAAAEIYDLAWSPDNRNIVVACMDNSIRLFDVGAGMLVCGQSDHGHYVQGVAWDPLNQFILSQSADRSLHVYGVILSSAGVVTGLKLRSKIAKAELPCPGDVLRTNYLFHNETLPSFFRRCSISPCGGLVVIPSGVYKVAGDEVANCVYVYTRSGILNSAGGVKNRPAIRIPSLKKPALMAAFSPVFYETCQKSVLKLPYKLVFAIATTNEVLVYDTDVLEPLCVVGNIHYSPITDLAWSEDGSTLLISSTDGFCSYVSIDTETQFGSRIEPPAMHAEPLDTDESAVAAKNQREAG
Cac1 (in CAF-1);GST-Cac2;Cac3 (budding yeast, sequence (P13712 whole entry, chain 3 of 3): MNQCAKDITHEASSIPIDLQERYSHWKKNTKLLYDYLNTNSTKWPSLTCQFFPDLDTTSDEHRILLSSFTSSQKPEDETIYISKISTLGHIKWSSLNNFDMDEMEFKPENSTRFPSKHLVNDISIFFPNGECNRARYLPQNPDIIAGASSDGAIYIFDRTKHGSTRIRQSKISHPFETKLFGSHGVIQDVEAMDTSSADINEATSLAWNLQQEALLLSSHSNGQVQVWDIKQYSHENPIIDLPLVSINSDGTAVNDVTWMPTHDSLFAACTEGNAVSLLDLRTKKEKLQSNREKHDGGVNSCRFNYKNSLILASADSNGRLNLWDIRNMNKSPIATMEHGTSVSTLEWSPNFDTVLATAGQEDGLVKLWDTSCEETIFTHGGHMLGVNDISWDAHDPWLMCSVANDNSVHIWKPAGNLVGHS

T1 sequence (Q12495 520-606): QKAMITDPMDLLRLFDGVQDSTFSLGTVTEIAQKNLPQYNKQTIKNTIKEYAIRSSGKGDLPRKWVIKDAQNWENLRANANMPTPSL
Cac1C K553E, sequence (Q12495 520-606 K553E): as the sequence (Q12495 520-606) above, with K34E counted along it
Cac1C K577E, sequence (Q12495 520-606 K577E): as the sequence (Q12495 520-606) above, with K58E counted along it
GST-Cac2, sequence (Q04199 1-438): as the sequence (Q04199 1-438, chain 2 of 3) above
Hsp150C, sequence (Q13111 727-854): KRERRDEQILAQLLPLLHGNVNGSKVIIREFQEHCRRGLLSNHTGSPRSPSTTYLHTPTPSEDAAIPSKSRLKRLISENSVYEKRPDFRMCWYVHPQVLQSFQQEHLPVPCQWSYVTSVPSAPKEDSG
Cac1C K583E, sequence (Q12495 520-606 K583E): as the sequence (Q12495 520-606) above, with K64E counted along it

B1: GC-rich (dsDNA)
DNA 1: ATCGCCCGCGCA
DNA 2: TGCGCGGGCGAT
As for B1, in the data set with Cac1C (C-terminal WHD) [1], the binding result is “binds”.

B2: AT-rich (dsDNA)
DNA 1: ATAATCGATATT
DNA 2: AATATCGATTAT
B2: the binding result with Cac1C (C-terminal WHD) [2] is reported as “binds”.

Take CAACAAAACCCCAACCCCAAACCACACC (ssDNA) [ssDNA]: the binding result in the data set with Cac1C (C-terminal WHD) [3] is “binds”.

B3: 58 bp (dsDNA)
DNA 1: ATACATTTTATGACTGGAAACTTTTTTGTACAACACTCCAATAAACATTTTGATTTTA
DNA 2: TAAAATCAAAATGTTTATTGGAGTGTTGTACAAAAAAGTTTCCAGTCATAAAATGTAT
For the molecule B3, the binding result was “binds” in the data set with Cac1C K577E; “binds” with Cac1C (C-terminal WHD) [4]; “binds” with Cac1C K553E; “binds” with Cac1C K583E; “no binding” with Mmp150C 4KE; “binds” with Hsp150C. The binding result with Mmp150C was “binds”.

B4: 58 bp biotinylated (dsDNA)
DNA 1: B3 DNA 1
DNA 2: B3 DNA 2
modifications: biotin on one strand
As to B4, the figures for the binding result (with GST-Cac2; in the data set with Cac1C (C-terminal WHD) [5]; in data set [6]) were “no binding”, “binds” and “binds”, respectively.

Values taken from article PMC4914081.
